From article PMC3542637 (Biochemistry, 2012)

Molecular target: the molecule itself
Assay: crystal structure

B1: L-fucose dehydrogenase BmulJ_04919 from Burkholderia multivorans ATCC 17616 (enzyme, UniProt A0A0H3KNE7 1-258, looked up)
chain: MDLNLQDKVVIVTGGASGIGGAISMRLAEERAIPVVFARHAPDGAFLDALAQRQPRATYLPVELQDDAQCRDAVAQTIATFGRLDGLVNNAGVNDGIGLDAGRDAFVASLERNLIHYYAMAHYCVPHLKATRGAIVNISSKTAVTGQGNTSGYCASKGAQLALTREWAVALREHGVRVNAVIPAEVMTPLYRNWIATFEDPEAKLAEIAAKVPLGRRFTTPDEIADTAVFLLSPRASHTTGEWLFVDGGYTHLDRALV
Q: For B1, which “stoichiometry N” value is on record?
A: 4
